Data on two molecules can be found in publication PMC8233210, “The archaeal triphosphate tunnel metalloenzyme SaTTM defines structural determinants for the diverse activities in the CYTH protein family” (The Journal of Biological Chemistry, 2021).

In one data set the target is T1, SaTTM (Saci_0718) (Sulfolobus acidocaldarius, UniProt Q4JAT2).
T1 construct: full ORF, C-terminal His6 (pSVA1028), expressed in E. coli BL21-Gold (DE3), heat step, IMAC, SEC; homodimer of 56 kDa
The data set can be described thus: X-ray crystal structure of the complex. The format is binding. To be noted: 10 mM CaCl2, 5 mM PPi, pH 4.6, 4 °C; also 10 mM MgCl2 crystal without bound Mg2+; closed tunnel, active site.

Substrate in data set [1]: O=P(O)(O)OP(=O)(O)OP(=O)(O)O
The data set is described as follows: malachite green phosphate release, Michaelis-Menten fit. The data set is classed as biochemical, Sulfolobus acidocaldarius. To be noted: 2 mM MgCl2, 50 mM Tris, 200 mM NaCl, pH 8.6, 75 °C, 5 nM enzyme.

Data set [2] deals with the molecule itself. The data set can be described thus: SEC; analytical Superdex 200 10/300 GL, SEC buffer (200 mM NaCl, 50 mM Tris, pH 9.0), compared with standards. Background: SEC sorts molecules by how far they enter the pores of the column.

As for `O=P(O)(O)OP(=O)(O)O` [PPi, pyrophosphate], the “X-ray crystal structure of the complex” value at SaTTM (Saci_0718) is recorded as “we determined crystal structures of SaTTM in complex with pyrophosphate”.

B1: Sulfolobus acidocaldarius triphosphate tunnel metalloenzyme (SaTTM) (enzyme, Sulfolobus acidocaldarius DSM 639, UniProt Q4JAT2 1-185, looked up)
chain: MSYIEREIKLRVISPSLEEIEERIRNNYTFINEEHQIDIYYNNPIRDFRKSDEALRLRNTNGKVILTYKGPKQSKETKTREEIEVEVSDLHKMDLILRKLGFIRSFQVEKIRKNYKYADFIISLDSIKELGEFIEIEGINKTEKELISFVDEFVKKHQIQYEKTIKSYLELLVEHAKKTNNSNTH
notes: SaTTM (Saci_0718), CYTH ortholog of Sulfolobus acidocaldarius DSM 639; ORF amplified from the genome and cloned NcoI/BamHI into pSA4 to give pSVA1028; No step that removes the His6 tag is described; The NcoI cloning site may have changed the residue after the first methionine; also called Saci_0718; S. acidocaldarius CYTH enzyme; source: E. coli BL21-Gold (DE3), purified (heat step 70 °C, Ni-NTA, …)
In general, kcat refers to the number of substrate molecules converted per active site and unit of time at saturation. In general, stoichiometry N refers to the number of molecules, sites or subunits per partner or assembly. For the molecule B1, in data set [1], the Km was 41.0 (95% CI 29.8 to 55.4) μM and the kcat is 5934 s⁻¹. Besides, in data set [2], the “stoichiometry N” value was determined as 2.
